Assay results taken from IntAct's records for PubMed 20562859.

B1: Gamma-aminobutyric acid receptor-associated protein (Homo sapiens), O95166 (parent)
chain: MKFVYKEEHPFEKRRSEGEKIRKKYPDRVPVIVEKAPKARIGDLDKKKYLVPSDLTVGQFYFLIRKRIHLRAEDALFFFVNNVIPPTSATMGQLYQEHHEEDFFLYIAYSDESVYGL
partner: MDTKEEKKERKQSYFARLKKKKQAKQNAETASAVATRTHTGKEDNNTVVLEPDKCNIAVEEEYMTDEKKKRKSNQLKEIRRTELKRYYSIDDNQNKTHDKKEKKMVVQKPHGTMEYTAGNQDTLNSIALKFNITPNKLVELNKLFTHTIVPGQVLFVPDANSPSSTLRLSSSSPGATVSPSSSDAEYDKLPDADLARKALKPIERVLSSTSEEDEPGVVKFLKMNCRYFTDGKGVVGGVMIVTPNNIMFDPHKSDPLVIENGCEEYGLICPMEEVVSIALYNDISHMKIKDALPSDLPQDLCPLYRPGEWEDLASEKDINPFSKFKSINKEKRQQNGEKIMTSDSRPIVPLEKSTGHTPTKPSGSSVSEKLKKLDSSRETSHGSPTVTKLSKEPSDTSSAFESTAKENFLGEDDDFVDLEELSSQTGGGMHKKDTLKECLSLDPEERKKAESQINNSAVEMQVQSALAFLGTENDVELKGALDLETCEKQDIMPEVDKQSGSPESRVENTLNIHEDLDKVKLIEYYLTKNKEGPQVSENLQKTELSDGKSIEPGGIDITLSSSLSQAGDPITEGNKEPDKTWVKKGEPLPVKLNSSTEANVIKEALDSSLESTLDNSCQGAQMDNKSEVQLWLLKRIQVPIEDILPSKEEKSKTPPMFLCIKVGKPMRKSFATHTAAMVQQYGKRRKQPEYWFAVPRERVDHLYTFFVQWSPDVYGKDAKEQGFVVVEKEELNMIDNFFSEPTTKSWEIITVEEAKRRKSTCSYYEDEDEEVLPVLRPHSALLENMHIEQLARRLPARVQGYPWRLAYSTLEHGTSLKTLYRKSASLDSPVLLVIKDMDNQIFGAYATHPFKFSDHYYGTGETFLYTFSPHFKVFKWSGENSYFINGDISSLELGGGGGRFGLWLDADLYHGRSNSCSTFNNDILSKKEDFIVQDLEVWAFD
B2: Gamma-aminobutyric acid receptor-associated protein (Homo sapiens), O95166 (parent)
chain: B1 chain
partner: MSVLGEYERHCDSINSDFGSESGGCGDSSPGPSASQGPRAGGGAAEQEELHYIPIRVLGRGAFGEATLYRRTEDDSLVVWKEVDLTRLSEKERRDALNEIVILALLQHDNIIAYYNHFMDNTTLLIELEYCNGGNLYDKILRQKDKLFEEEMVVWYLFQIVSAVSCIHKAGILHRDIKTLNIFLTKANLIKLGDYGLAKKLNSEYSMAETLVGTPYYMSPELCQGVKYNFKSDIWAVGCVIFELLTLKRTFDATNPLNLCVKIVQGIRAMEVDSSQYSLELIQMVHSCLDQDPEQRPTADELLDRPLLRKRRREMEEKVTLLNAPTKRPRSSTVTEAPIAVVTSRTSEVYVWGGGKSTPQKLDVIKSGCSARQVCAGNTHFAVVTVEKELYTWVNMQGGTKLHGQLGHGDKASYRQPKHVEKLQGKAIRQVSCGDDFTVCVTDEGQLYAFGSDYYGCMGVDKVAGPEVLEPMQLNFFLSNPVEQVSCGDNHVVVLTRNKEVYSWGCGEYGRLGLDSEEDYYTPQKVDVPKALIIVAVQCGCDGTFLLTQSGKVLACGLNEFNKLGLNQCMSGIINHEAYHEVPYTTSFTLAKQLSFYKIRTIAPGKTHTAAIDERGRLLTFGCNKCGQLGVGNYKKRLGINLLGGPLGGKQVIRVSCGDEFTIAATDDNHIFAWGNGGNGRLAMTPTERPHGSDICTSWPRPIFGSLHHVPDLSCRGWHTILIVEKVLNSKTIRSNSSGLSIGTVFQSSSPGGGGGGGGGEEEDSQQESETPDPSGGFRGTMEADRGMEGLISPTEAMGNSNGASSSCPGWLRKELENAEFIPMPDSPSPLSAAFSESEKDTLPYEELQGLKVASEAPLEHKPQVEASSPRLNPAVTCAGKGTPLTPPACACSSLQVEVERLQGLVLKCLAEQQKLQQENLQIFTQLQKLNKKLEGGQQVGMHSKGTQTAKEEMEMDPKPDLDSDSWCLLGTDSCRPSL
B3: Gamma-aminobutyric acid receptor-associated protein (Homo sapiens), O95166 (parent)
chain: B1 chain
partner: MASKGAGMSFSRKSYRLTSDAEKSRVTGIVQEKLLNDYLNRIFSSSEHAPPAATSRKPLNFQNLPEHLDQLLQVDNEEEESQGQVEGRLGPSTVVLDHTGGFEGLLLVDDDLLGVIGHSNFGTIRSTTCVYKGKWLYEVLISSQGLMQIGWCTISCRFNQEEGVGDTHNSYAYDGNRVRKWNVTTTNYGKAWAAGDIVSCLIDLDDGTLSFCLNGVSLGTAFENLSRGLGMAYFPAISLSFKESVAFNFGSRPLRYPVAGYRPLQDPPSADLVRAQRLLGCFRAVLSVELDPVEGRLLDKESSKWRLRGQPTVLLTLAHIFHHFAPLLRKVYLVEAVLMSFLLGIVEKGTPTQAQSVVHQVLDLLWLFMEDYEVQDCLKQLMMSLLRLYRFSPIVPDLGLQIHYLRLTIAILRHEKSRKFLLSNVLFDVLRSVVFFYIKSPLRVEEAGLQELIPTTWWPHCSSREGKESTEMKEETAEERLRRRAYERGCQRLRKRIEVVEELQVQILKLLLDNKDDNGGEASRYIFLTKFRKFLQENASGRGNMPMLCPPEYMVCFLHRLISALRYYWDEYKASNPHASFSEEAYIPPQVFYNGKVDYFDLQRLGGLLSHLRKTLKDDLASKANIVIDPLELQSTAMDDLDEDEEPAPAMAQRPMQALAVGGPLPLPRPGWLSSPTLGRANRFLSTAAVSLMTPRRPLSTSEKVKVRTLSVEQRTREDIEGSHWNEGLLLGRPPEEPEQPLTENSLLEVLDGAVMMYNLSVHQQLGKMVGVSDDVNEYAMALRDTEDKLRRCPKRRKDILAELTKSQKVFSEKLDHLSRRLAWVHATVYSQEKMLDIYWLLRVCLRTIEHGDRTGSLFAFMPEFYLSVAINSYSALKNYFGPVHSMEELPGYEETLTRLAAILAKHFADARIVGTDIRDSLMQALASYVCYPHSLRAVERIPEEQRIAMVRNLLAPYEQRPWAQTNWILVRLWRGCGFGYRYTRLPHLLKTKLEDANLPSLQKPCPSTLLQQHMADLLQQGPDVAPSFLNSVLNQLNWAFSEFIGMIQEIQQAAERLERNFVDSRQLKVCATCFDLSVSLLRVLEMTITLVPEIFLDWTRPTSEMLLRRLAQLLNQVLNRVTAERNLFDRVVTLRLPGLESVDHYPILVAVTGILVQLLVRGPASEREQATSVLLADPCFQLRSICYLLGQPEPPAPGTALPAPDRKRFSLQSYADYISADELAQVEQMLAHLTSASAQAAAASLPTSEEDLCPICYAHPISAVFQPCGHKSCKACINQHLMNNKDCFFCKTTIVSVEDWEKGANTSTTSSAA
B4: Gamma-aminobutyric acid receptor-associated protein (Homo sapiens), O95166 (parent)
chain: B1 chain
partner: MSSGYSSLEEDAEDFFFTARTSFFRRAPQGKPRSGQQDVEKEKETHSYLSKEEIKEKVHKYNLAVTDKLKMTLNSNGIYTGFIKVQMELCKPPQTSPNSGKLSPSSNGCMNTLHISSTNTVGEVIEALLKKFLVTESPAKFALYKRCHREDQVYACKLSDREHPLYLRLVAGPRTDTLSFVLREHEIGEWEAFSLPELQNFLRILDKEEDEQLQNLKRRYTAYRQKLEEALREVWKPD
B5: Gamma-aminobutyric acid receptor-associated protein (Homo sapiens), O95166 (parent)
chain: B1 chain
partner: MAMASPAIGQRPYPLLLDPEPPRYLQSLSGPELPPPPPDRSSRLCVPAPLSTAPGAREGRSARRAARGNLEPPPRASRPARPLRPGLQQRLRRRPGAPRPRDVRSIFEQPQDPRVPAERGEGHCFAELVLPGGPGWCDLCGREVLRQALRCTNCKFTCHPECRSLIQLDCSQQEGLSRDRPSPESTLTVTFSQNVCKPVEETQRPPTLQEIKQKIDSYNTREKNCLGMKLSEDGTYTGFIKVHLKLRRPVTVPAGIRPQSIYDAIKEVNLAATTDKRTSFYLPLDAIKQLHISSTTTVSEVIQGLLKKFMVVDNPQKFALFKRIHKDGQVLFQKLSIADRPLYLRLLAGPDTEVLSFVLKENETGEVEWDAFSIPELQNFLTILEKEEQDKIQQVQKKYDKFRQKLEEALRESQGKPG
B6: Gamma-aminobutyric acid receptor-associated protein (Homo sapiens), O95166 (parent)
chain: B1 chain
partner: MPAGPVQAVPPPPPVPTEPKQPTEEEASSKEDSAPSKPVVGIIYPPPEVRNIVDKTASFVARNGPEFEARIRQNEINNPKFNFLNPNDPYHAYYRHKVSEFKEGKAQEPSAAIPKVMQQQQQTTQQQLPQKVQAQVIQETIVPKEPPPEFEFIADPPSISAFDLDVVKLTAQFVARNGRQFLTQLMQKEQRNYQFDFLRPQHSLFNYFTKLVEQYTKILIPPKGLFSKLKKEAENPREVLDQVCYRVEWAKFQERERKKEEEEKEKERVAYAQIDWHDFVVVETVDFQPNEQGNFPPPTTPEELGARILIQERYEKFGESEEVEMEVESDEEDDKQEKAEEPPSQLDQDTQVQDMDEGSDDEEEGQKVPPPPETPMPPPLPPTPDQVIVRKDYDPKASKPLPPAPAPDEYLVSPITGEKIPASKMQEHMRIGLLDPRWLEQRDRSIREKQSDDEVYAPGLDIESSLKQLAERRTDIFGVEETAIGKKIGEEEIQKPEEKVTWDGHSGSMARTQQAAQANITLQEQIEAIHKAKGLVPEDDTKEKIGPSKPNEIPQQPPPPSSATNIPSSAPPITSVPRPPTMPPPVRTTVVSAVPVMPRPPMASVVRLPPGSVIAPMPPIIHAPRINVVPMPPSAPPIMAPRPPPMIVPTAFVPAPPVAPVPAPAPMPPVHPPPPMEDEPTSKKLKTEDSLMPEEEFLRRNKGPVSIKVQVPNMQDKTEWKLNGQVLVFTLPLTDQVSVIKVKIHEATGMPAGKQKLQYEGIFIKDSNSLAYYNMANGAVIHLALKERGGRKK

Variants of: B1
Settings: with ncoa7_human NCOA7, Q8NI08
In the case of Y49A;L50A, the “effect of a mutation on the interaction” value is reported as “decreasing interaction”.

Variants of: B2
Settings: with nek9_human NEK9, Q8TD19
For Y49A;L50A, the “effect of a mutation on the interaction” value was “decreasing interaction”.

Variants of: B3
Settings: with rn123_human RNF123, Q5XPI4
For Y49A;L50A, the “effect of a mutation on the interaction” value was “decreasing interaction”.

Variants of: B4
Settings: with rasf3_human RASSF3, Q86WH2
Y49A;L50A was tested, and the “effect of a mutation on the interaction” value was “decreasing interaction”.

Variants of: B5
Settings: with rasf5_human RASSF5, Q8WWW0
For Y49A;L50A, the “effect of a mutation on the interaction” value was “increasing interaction”.

Variants of: B6
Settings: with sf3a1_human SF3A1, Q15459
In the case of Y49A;L50A, the “effect of a mutation on the interaction” value is reported as “decreasing interaction”.
